Experimental data reported in patent publication US20160264649A1.

Legend:
Experiment in all cases: cell-based or functional assay
[1] = biological target: HIV-1 Env of isolate MGRM-Chronic-B-004 (HIV-1)
[2] = biological target: HIV-1 Env of isolate QH0692.42 (HIV-1)
[3] = biological target: HIV-1 Env of isolate MG RM-C-020 (HIV-1)
[4] = biological target: HIV-1 Env of isolate 98IN022 (HIV-1)
[5] = biological target: HIV-1 Env of isolate THR0.18 (HIV-1)
[6] = biological target: HIV-1 Env of isolate 93MW959 (HIV-1)
[7] = biological target: HIV-1 Env of isolate PVO.4 (HIV-1)
[8] = biological target: HIV-1 Env of isolate MGRM-Chronic-B-010 (HIV-1)
[9] = biological target: HIV-1 Env of isolate 92 BR 020 (HIV-1)
[10] = biological target: HIV-1 Env of isolate 97ZA012 (HIV-1)
[11] = biological target: HIV-1 Env of isolate MG RM-C-025 (HIV-1)
[12] = biological target: HIV-1 Env of isolate MGRM-Chronic-B-012 (HIV-1)
[13] = biological target: HIV-1 Env of isolate VLGCB3 (HIV-1)
[14] = biological target: HIV-1 Env of isolate MGRM-Chronic-B-024 (HIV-1)
[15] = biological target: HIV-1 Env of isolate 93IN905 (HIV-1)
[16] = biological target: HIV-1 Env of isolate JRFL (HIV-1)
[17] = biological target: HIV-1 Env of isolate MGRM-Chronic-B-003 (HIV-1)
[18] = biological target: HIV-1 Env of isolate TRJ04551.58 (HIV-1)
[19] = biological target: HIV-1 Env of isolate 93TH305 (HIV-1)
[20] = biological target: HIV-1 Env of isolate 6535.3 (HIV-1)
[21] = biological target: HIV-1 Env of isolate MGRM-Chronic-B-020 (HIV-1)
[22] = biological target: HIV-1 Env of isolate MGRM-Chronic-B-001 (HIV-1)
[23] = biological target: HIV-1 Env of isolate MG RM-C-027 (HIV-1)
[24] = biological target: HIV-1 Env of isolate SF162 (HIV-1) (UniProt P19550)
[25] = biological target: HIV-1 Env of isolate MGRM-Chronic-B-002 (HIV-1)
[26] = biological target: HIV-1 Env of isolate MG RM-C-022 (HIV-1)
[27] = biological target: HIV-1 Env of isolate APV_17 (HIV-1)
[28] = biological target: HIV-1 Env of isolate MGRM-Chronic-B-018 (HIV-1)
[29] = biological target: HIV-1 Env of isolate CAAN.A2 (HIV-1)
[30] = biological target: HIV-1 Env of isolate MGRM-Chronic-B-011 (HIV-1)
[31] = biological target: HIV-1 Env of isolate SC422661.8 (HIV-1)
[32] = biological target: HIV-1 Env of isolate MGRM-Chronic-B-023 (HIV-1)
[33] = biological target: HIV-1 Env of isolate TRO.11 (HIV-1)
[34] = biological target: HIV-1 Env of isolate MG RM-C-024 (HIV-1)
[35] = biological target: HIV-1 Env of isolate NL43 (HIV-1)
[36] = biological target: HIV-1 Env of isolate APV_6 (HIV-1)
[37] = biological target: HIV-1 Env of isolate MG RM-C-023 (HIV-1)
[38] = biological target: HIV-1 Env of isolate MGRM-Chronic-B-008 (HIV-1)
[39] = biological target: HIV-1 Env of isolate JRCSF (HIV-1) (UniProt P20871)
[40] = biological target: HIV-1 Env of isolate MG RM-C-026 (HIV-1)
[41] = biological target: HIV-1 Env of isolate MG RM-C-028 (HIV-1)
[42] = biological target: HIV-1 Env of isolate MGRM-Chronic-B-017 (HIV-1)
[43] = biological target: HIV-1 Env of isolate APV_13 (HIV-1)

Substance: PGT-123 monoclonal antibody (4858_P08)
- neutralization IC50 [1]: 0.008 µg/mL
- neutralization IC50 [2]: 0.158 µg/mL
- neutralization IC50 [3]: > 50 µg/mL
- neutralization IC50 [4]: 0.011 µg/mL
- neutralization IC50 [5]: > 50 µg/mL
- neutralization IC50 [6]: 0.011 µg/mL
- neutralization IC50 [7]: 0.105 µg/mL
- neutralization IC50 [8]: 0.009 µg/mL
- neutralization IC50 [9]: 0.008 µg/mL
- neutralization IC50 [10]: 0.002 µg/mL
- neutralization IC50 [11]: 13.3 µg/mL
- neutralization IC50 [12]: 0.227 µg/mL
- neutralization IC50 [13]: 0.004 µg/mL
- neutralization IC50 [14]: > 50 µg/mL
- neutralization IC50 [15]: 0.004 µg/mL
- neutralization IC50 [16]: 0.014 µg/mL
- neutralization IC50 [17]: 0.008 µg/mL
- neutralization IC50 [18]: 16.9 µg/mL
- neutralization IC50 [19]: 0.008 µg/mL
- neutralization IC50 [20]: 0.004 µg/mL
- neutralization IC50 [21]: 0.005 µg/mL
- neutralization IC50 [22]: 0.15 µg/mL
- neutralization IC50 [23]: 0.02 µg/mL
- neutralization IC50 [24]: 0.005 µg/mL
- neutralization IC50 [25]: 0.234 µg/mL
- neutralization IC50 [26]: 0.01 µg/mL
- neutralization IC50 [27]: 0.114 µg/mL
- neutralization IC50 [28]: > 50 µg/mL
- neutralization IC50 [29]: 0.015 µg/mL
- neutralization IC50 [30]: > 50 µg/mL
- neutralization IC50 [31]: 0.039 µg/mL
- neutralization IC50 [32]: 0.055 µg/mL
- neutralization IC50 [33]: 0.008 µg/mL
- neutralization IC50 [34]: 0.195 µg/mL
- neutralization IC50 [35]: > 50 µg/mL
- neutralization IC50 [36]: 0.023 µg/mL
- neutralization IC50 [37]: 0.011 µg/mL
- neutralization IC50 [38]: 0.01 µg/mL
- neutralization IC50 [39]: 0.046 µg/mL
- neutralization IC50 [40]: 0.001 µg/mL
- neutralization IC50 [41]: 0.402 µg/mL
- neutralization IC50 [42]: > 50 µg/mL
- neutralization IC50 [43]: 0.138 µg/mL

Substance: PGT-125 monoclonal antibody (5123_A06)
- neutralization IC50 [1]: 0.007 µg/mL
- neutralization IC50 [2]: 0.048 µg/mL
- neutralization IC50 [3]: > 50 µg/mL
- neutralization IC50 [4]: 22.1 µg/mL
- neutralization IC50 [5]: > 50 µg/mL
- neutralization IC50 [6]: 37.5 µg/mL
- neutralization IC50 [7]: 0.042 µg/mL
- neutralization IC50 [8]: 0.006 µg/mL
- neutralization IC50 [9]: 0.016 µg/mL
- neutralization IC50 [10]: 2.46 µg/mL
- neutralization IC50 [11]: 42.5 µg/mL
- neutralization IC50 [12]: 0.036 µg/mL
- neutralization IC50 [13]: 0.015 µg/mL
- neutralization IC50 [14]: > 50 µg/mL
- neutralization IC50 [15]: 0.009 µg/mL
- neutralization IC50 [16]: 0.009 µg/mL
- neutralization IC50 [17]: 0.157 µg/mL
- neutralization IC50 [18]: 0.019 µg/mL
- neutralization IC50 [19]: 0.008 µg/mL
- neutralization IC50 [20]: 0.01 µg/mL
- neutralization IC50 [21]: 0.087 µg/mL
- neutralization IC50 [22]: > 50 µg/mL
- neutralization IC50 [23]: > 50 µg/mL
- neutralization IC50 [24]: 0.004 µg/mL
- neutralization IC50 [25]: 0.064 µg/mL
- neutralization IC50 [26]: 1.23 µg/mL
- neutralization IC50 [27]: 8.06 µg/mL
- neutralization IC50 [28]: > 50 µg/mL
- neutralization IC50 [29]: 5.47 µg/mL
- neutralization IC50 [30]: 3.23 µg/mL
- neutralization IC50 [31]: 30.1 µg/mL
- neutralization IC50 [32]: > 50 µg/mL
- neutralization IC50 [33]: 0.111 µg/mL
- neutralization IC50 [34]: > 50 µg/mL
- neutralization IC50 [35]: > 50 µg/mL
- neutralization IC50 [36]: 0.021 µg/mL
- neutralization IC50 [37]: 1.31 µg/mL
- neutralization IC50 [38]: > 50 µg/mL
- neutralization IC50 [39]: 0.004 µg/mL
- neutralization IC50 [40]: 0.005 µg/mL
- neutralization IC50 [41]: 14 µg/mL
- neutralization IC50 [42]: > 50 µg/mL
- neutralization IC50 [43]: 0.007 µg/mL

Substance: PGT-126 monoclonal antibody (5141_B17)
- neutralization IC50 [1]: 0.01 µg/mL
- neutralization IC50 [2]: 0.048 µg/mL
- neutralization IC50 [3]: > 50 µg/mL
- neutralization IC50 [4]: 0.279 µg/mL
- neutralization IC50 [5]: > 50 µg/mL
- neutralization IC50 [6]: 9.44 µg/mL
- neutralization IC50 [7]: 0.017 µg/mL
- neutralization IC50 [8]: 0.005 µg/mL
- neutralization IC50 [9]: 0.015 µg/mL
- neutralization IC50 [10]: 0.042 µg/mL
- neutralization IC50 [11]: 0.786 µg/mL
- neutralization IC50 [12]: 0.027 µg/mL
- neutralization IC50 [13]: 0.007 µg/mL
- neutralization IC50 [14]: > 50 µg/mL
- neutralization IC50 [15]: 0.015 µg/mL
- neutralization IC50 [16]: 0.014 µg/mL
- neutralization IC50 [17]: 0.041 µg/mL
- neutralization IC50 [18]: 0.025 µg/mL
- neutralization IC50 [19]: 0.013 µg/mL
- neutralization IC50 [20]: 0.022 µg/mL
- neutralization IC50 [21]: 0.021 µg/mL
- neutralization IC50 [22]: > 50 µg/mL
- neutralization IC50 [23]: 15.6 µg/mL
- neutralization IC50 [24]: 0.003 µg/mL
- neutralization IC50 [25]: 0.078 µg/mL
- neutralization IC50 [26]: 0.96 µg/mL
- neutralization IC50 [27]: 0.353 µg/mL
- neutralization IC50 [28]: 0.052 µg/mL
- neutralization IC50 [29]: 0.273 µg/mL
- neutralization IC50 [30]: 0.108 µg/mL
- neutralization IC50 [31]: 0.119 µg/mL
- neutralization IC50 [32]: > 50 µg/mL
- neutralization IC50 [33]: 0.041 µg/mL
- neutralization IC50 [34]: > 50 µg/mL
- neutralization IC50 [35]: > 50 µg/mL
- neutralization IC50 [36]: 0.007 µg/mL
- neutralization IC50 [37]: 0.065 µg/mL
- neutralization IC50 [38]: 5.89 µg/mL
- neutralization IC50 [39]: 0.008 µg/mL
- neutralization IC50 [40]: 0.007 µg/mL
- neutralization IC50 [41]: 0.196 µg/mL
- neutralization IC50 [42]: > 50 µg/mL
- neutralization IC50 [43]: 0.012 µg/mL

Substance: PGT-127 monoclonal antibody (5145_B14)
- neutralization IC50 [1]: 0.018 µg/mL
- neutralization IC50 [2]: 0.129 µg/mL
- neutralization IC50 [3]: > 50 µg/mL
- neutralization IC50 [4]: 19.2 µg/mL
- neutralization IC50 [5]: > 50 µg/mL
- neutralization IC50 [6]: 6.95 µg/mL
- neutralization IC50 [7]: 0.164 µg/mL
- neutralization IC50 [8]: 0.019 µg/mL
- neutralization IC50 [9]: 0.059 µg/mL
- neutralization IC50 [10]: > 50 µg/mL
- neutralization IC50 [11]: > 50 µg/mL
- neutralization IC50 [12]: 0.075 µg/mL
- neutralization IC50 [13]: 0.022 µg/mL
- neutralization IC50 [14]: > 50 µg/mL
- neutralization IC50 [15]: 0.024 µg/mL
- neutralization IC50 [16]: 0.029 µg/mL
- neutralization IC50 [17]: 0.12 µg/mL
- neutralization IC50 [18]: 0.063 µg/mL
- neutralization IC50 [19]: 0.017 µg/mL
- neutralization IC50 [20]: 0.02 µg/mL
- neutralization IC50 [21]: 0.05 µg/mL
- neutralization IC50 [22]: > 50 µg/mL
- neutralization IC50 [23]: > 50 µg/mL
- neutralization IC50 [24]: 0.019 µg/mL
- neutralization IC50 [25]: 0.279 µg/mL
- neutralization IC50 [26]: 0.41 µg/mL
- neutralization IC50 [27]: 10.4 µg/mL
- neutralization IC50 [28]: 1.9 µg/mL
- neutralization IC50 [29]: 0.371 µg/mL
- neutralization IC50 [30]: 0.297 µg/mL
- neutralization IC50 [31]: 36.7 µg/mL
- neutralization IC50 [32]: > 50 µg/mL
- neutralization IC50 [33]: 0.079 µg/mL
- neutralization IC50 [34]: > 50 µg/mL
- neutralization IC50 [35]: > 50 µg/mL
- neutralization IC50 [36]: 0.04 µg/mL
- neutralization IC50 [37]: 1.08 µg/mL
- neutralization IC50 [38]: 21.5 µg/mL
- neutralization IC50 [39]: 0.018 µg/mL
- neutralization IC50 [40]: 0.014 µg/mL
- neutralization IC50 [41]: 7.57 µg/mL
- neutralization IC50 [42]: > 50 µg/mL
- neutralization IC50 [43]: 0.026 µg/mL
